Results as given in PMC2871011.

Target: low-molecular-weight fibrinogen fraction I-9 isolated from plasma (human) (UniProt P02671)
Experiment: co-purification

## latent TGF-β1 (TGF-β1 with its latency-associated protein) (from UniProt P01137 30-278) (complex)
  fold less latent TGF-β than in fraction I-2: 8 fold
